± gives the standard deviation.
Assay: protein stability index of a GFP-peptide fusion (GPS, HEK-293T) (PSI 1-6); higher = more stable
[1] = treatment: DMSO, c terminus: a fixed tail appended
[2] = treatment: MLN4924 1 uM, 8 h, c terminus: a fixed tail appended
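Further: 24-mer peptide tiles fused after GFP, lentivirally expressed, FACS-sorted into six equal bins by GFP/DsRed ratio, decoded by Illumina sequencing, PSI is the read-weighted mean bin number.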

Sequence: NFQFLPQVNGHPDPFDEIILFSLP [PTPN9]
- protein stability index [1]: 2.4 ± 0.29
- protein stability index [2]: 2.37 ± 0.19

Sequence: RYHLQQNVHFKEETVKLFICELVM [STK32A]
- protein stability index [1]: 2.35 ± 0.41
- protein stability index [2]: 2.46 ± 0.26

Sequence: QLCDVSIRVQGREFRAHRAVLAAS [ZBTB22]
- protein stability index [1]: 2.58 ± 0.35
- protein stability index [2]: 2.77 ± 0.3

Sequence: KWDAENAIQQMGGQWLGGRQIRTN [TIA1]
- protein stability index [1]: 3.51 ± 0.28
- protein stability index [2]: 3.56 ± 0.3

Sequence: LYVVGGQSNYDTKGKTAVDTVFRF [KLHL13]
- protein stability index [1]: 2.5 ± 0.2
- protein stability index [2]: 1.98 ± 0.31

Sequence: ELAEHRCHPVERGIKSKEAEEYRL [PSD2]
- protein stability index [1]: 4.89 ± 0.25
- protein stability index [2]: 4.64 ± 0.36

Sequence: PDAIRSRSNTLRERSQVRGSAPPR [PCDHGC5]
- protein stability index [1]: 5 ± 0.33
- protein stability index [2]: 4.84 ± 0.23

Sequence: AQQIRLHHFNSSHLEIDDMYTPAY [MYORG]
- protein stability index [1]: 2.86 ± 0.26
- protein stability index [2]: 2.91 ± 0.21

Sequence: RSPYAGLQLGAAKKPPVTFAEKGE [TRIM29]
- protein stability index [1]: 4.09 ± 0.22
- protein stability index [2]: 4.26 ± 0.2

Sequence: IALVENIPEGLNYSENAPFHLSLF [PLD5]
- protein stability index [1]: 2.2 ± 0.83
- protein stability index [2]: 2.25 ± 0.24

Sequence: GSYGGFASAPTTPCQKSPNGVRVF [TRIM9]
- protein stability index [1]: 3.17 ± 0.18
- protein stability index [2]: 3.25 ± 0.24

Sequence: YTCHECGDSFSHSSNRIRHLRTHT [ZNF263]
- protein stability index [1]: 3.04 ± 0.18
- protein stability index [2]: 3.32 ± 0.33

Sequence: KKDKCGRTPLHYAAANCHFHCIET [ANKRD44]
- protein stability index [1]: 2.5 ± 0.096
- protein stability index [2]: 2.63 ± 0.29

Sequence: EEALRKNTEEQLEIALAPYQHLEE [MTUS2]
- protein stability index [1]: 5.27 ± 0.18
- protein stability index [2]: 5.22 ± 0.23

Sequence: CIDFNKNLNEDDTFLVFSKAELGA
- protein stability index [1]: 2.88 ± 0.63
- protein stability index [2]: 2.81 ± 0.24

Sequence: LPYLEHVGHNHTYNMAPSALDSAD [NFE2L1]
- protein stability index [1]: 4.42 ± 0.15
- protein stability index [2]: 4.44 ± 0.11

Sequence: SNSCQDSTDTESNNEEQRSGLIYL [IKZF1]
- protein stability index [1]: 4.67 ± 0.27
- protein stability index [2]: 4.735 ± 0.023

Sequence: VTLRQVLAAKERHCGELKRRLGLS [TPD52L2]
- protein stability index [1]: 2.35 ± 0.28
- protein stability index [2]: 2.67 ± 0.2

Sequence: NETGYLSSVECYNLETNEWRYVSS [KLHL14]
- protein stability index [1]: 2.61 ± 0.32
- protein stability index [2]: 2.91 ± 0.57

Sequence: DSHVSSCSEDWVGYQRKCYFISTV [CD69]
- protein stability index [1]: 2.46 ± 0.88
- protein stability index [2]: 2.65 ± 0.6

Sequence: GTMGMAPLGNTPMMNQSMMGMNMN [CLINT1]
- protein stability index [1]: 3.39 ± 0.45
- protein stability index [2]: 3.52 ± 0.21

Sequence: GEGTFGKVVECLDHARGKSQVALK [CLK3]
- protein stability index [1]: 4.45 ± 0.33
- protein stability index [2]: 4.66 ± 0.082

Sequence: SVDIVSSHWDLNHTHPSACQGQRL [PLD5]
- protein stability index [1]: 3.64 ± 0.16
- protein stability index [2]: 3.82 ± 0.086

Sequence: TYVSPPGNEEEESKIFTTLDPASL [DDIT3]
- protein stability index [1]: 4.91 ± 0.26
- protein stability index [2]: 5.08 ± 0.065

Sequence: ESGDEVPVELYTAFQHTPTSITLT [KMT2E]
- protein stability index [1]: 2.73 ± 0.97
- protein stability index [2]: 3.65 ± 0.62

Sequence: RSVKVICLGSLASKLSRKYVKAKK [FAN1]
- protein stability index [1]: 2.37 ± 0.25
- protein stability index [2]: 2.37 ± 0.28

Sequence: EEEGIETQYFAELLMTSGVVLCEG [CNOT7]
- protein stability index [1]: 3.27 ± 0.24
- protein stability index [2]: 3.39 ± 0.12

Sequence: RQVLCEKCKSTLSPPEASPGPPAA [PWWP2B]
- protein stability index [1]: 4.88 ± 0.14
- protein stability index [2]: 4.83 ± 0.37

Sequence: LHRLKFLGFARRNWGNGKRPNLET [GDAP1]
- protein stability index [1]: 2.22 ± 0.32
- protein stability index [2]: 2.44 ± 0.45

Sequence: AWNPEDRSLNVFVKDDDRLTFHRH [SPSB4]
- protein stability index [1]: 3.65 ± 0.27
- protein stability index [2]: 3.76 ± 0.19

Sequence: PSEDIWKKFELVPSPPTSPPWGLG [MYCL]
- protein stability index [1]: 3.04 ± 0.36
- protein stability index [2]: 2.9 ± 0.37

Sequence: EEEISETGELVGPFVSAMPTPMPH [ZBED2]
- protein stability index [1]: 5.1 ± 0.2
- protein stability index [2]: 5.17 ± 0.15

Sequence: SRISHLVLPVQPVSSIEEQGCLF [TOR1AIP2]
- protein stability index (treatment: DMSO, c terminus: native): 2.63 ± 0.44
- protein stability index (treatment: MLN4924 1 uM, 8 h, c terminus: native): 2.62 ± 0.22

Sequence: PDLRQDFNMMEQKKRVSMILQSPA [ADD1]
- protein stability index [1]: 3.7 ± 0.32
- protein stability index [2]: 3.78 ± 0.23

Sequence: NLEKQLICPICLEMFTKPVVILPC [TRIM55]
- protein stability index [1]: 2.41 ± 0.34
- protein stability index [2]: 2.33 ± 0.22

Sequence: LKHPNIVRLHDSISEEGHHYLIFD [CAMK2A]
- protein stability index [1]: 2.58 ± 0.32
- protein stability index [2]: 2.79 ± 0.25

Sequence: EDDAQSRRDEQDDDDKGDSKETRL [GOLPH3]
- protein stability index [1]: 5.54 ± 0.21
- protein stability index [2]: 5.66 ± 0.17

Sequence: INPFTPDSLLLHSSGQCRRRKRTY [WEE1]
- protein stability index [1]: 3.62 ± 0.4
- protein stability index [2]: 3.83 ± 0.41

Sequence: AREELMESRMRIESLSSQLSNLQK [LMNB1]
- protein stability index [1]: 3.95 ± 0.18
- protein stability index [2]: 4.07 ± 0.19

Sequence: LPDGCQPLQLLREMRQALQALLKE [CBY2]
- protein stability index [1]: 2.45 ± 0.35
- protein stability index [2]: 2.51 ± 0.33

Sequence: TLWKHQFAWPFYQPVDAIKLNLPD [BRD3]
- protein stability index [1]: 2.46 ± 0.63
- protein stability index [2]: 2.3 ± 0.13

Sequence: EKAFSYRQMAFDFARVKKGADGVM [SNAP91]
- protein stability index [1]: 2.67 ± 0.16
- protein stability index [2]: 2.86 ± 0.31

Sequence: FPDLNTYIYYNEKYGGPNHHLPLP [CPN1]
- protein stability index [1]: 2.15 ± 0.17
- protein stability index [2]: 2.42 ± 0.096

Sequence: SKPCDLHCTTVDGQRQLMVPARDG [ADAMTSL2]
- protein stability index [1]: 4.33 ± 0.11
- protein stability index [2]: 4.37 ± 0.36

Source: the supplement of paper PMC10567573
